Reference: PMC8169993

Key:
[1] = molecular target: T1, RPA (heterotrimer RPA1/RPA2/RPA3) (Homo sapiens, UniProt P27694;P15927;P35244 1-616;1-270;1-121); experiment: gel filtration
[2] = molecular target: T1, RPA (heterotrimer RPA1/RPA2/RPA3); experiment: fluorescence polarization
[3] = molecular target: T1, RPA (heterotrimer RPA1/RPA2/RPA3); experiment: smFRET
[4] = molecular target: T1, RPA (heterotrimer RPA1/RPA2/RPA3); experiment: smFRET; remark: listed apart in the source
[5] = molecular target: T1, RPA (heterotrimer RPA1/RPA2/RPA3); experiment: smFRET; remark: listed apart in the source

T1 sequence (P27694 whole entry, chain 1 of 3): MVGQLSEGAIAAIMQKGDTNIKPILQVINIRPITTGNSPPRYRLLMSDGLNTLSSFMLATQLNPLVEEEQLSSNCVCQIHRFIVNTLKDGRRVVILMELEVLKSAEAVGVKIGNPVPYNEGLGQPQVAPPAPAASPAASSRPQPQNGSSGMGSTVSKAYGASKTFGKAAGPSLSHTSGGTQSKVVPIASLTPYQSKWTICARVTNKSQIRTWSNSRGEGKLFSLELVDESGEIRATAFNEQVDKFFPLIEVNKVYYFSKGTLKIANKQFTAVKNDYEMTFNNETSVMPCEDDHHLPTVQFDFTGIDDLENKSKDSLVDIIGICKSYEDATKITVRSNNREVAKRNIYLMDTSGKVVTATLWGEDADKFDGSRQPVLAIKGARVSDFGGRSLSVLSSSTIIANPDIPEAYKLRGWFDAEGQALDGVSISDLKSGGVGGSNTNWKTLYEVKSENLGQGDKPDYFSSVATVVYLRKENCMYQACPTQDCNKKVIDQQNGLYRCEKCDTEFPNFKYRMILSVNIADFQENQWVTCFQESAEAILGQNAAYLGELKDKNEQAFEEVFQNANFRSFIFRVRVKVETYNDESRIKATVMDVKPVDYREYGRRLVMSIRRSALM
T1 sequence (P15927 whole entry, chain 2 of 3): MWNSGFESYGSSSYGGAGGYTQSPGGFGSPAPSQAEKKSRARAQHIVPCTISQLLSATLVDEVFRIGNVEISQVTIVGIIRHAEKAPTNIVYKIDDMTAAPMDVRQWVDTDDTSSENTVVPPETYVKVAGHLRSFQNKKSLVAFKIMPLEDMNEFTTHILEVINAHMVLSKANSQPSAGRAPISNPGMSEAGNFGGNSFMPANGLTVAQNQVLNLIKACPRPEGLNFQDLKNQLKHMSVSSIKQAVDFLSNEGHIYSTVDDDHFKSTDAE
T1 sequence (P35244 whole entry, chain 3 of 3): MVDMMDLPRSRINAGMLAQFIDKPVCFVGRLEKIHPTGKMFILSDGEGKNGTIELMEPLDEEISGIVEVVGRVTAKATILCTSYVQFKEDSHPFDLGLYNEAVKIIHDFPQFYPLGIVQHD

B1: 4G4 (mixed)
DNA 1: GCGTGGCACCGGTAATAGGAAATAGGAGATTGGGGTGTGGGGACAGGGGTGTGGGGTT
DNA 2: TCCTATTTCCTATTACCGGTGCCACGC
binding result [1]: binds

B2: 3G4L1 (FP substrate) (mixed)
DNA 1: GCGTGGCACCGGTAATAGGAAATAGGAGATTGGGTGGGTGGGTGGGTT
DNA 2: TCCTATTTCCTATTACCGGTGCCACGC
Kd [2]: 8.6 nM

B3: 3G4L5 (mixed)
DNA 1: GCGTGGCACCGGTAATAGGAAATAGGAGATTGGGTTTTTGGGTTTTTGGGTTTTTGGGTT
DNA 2: TCCTATTTCCTATTACCGGTGCCACGC
binding result [3]: binds

B4: 3G4L3 (FP substrate) (mixed)
DNA 1: GCGTGGCACCGGTAATAGGAAATAGGAGATTGGGTTAGGGTTAGGGTTAGGGTT
DNA 2: TCCTATTTCCTATTACCGGTGCCACGC
Kd [2]: 6.3 nM

B5: 3G4L4 (mixed)
DNA 1: GCGTGGCACCGGTAATAGGAAATAGGAGATTGGGTTTTGGGTTTTGGGTTTTGGGTT
DNA 2: TCCTATTTCCTATTACCGGTGCCACGC
binding result [3]: binds

B6: 3G4L121* (mixed)
DNA 1: GGGTGGGTAGGGTGGGATGTATGACAAGGAAGG
DNA 2: CCTTCCTTGTCATAC
binding result [4]: binds

B7: 27bp4nt (mixed)
DNA 1: GCGTGGCACCGGTAATAGGAAATAGGAGATT
DNA 2: TCCTATTTCCTATTACCGGTGCCACGC
binding result [5]: binds
